Reference: publication PMC5566547, “Nei-like 1 (NEIL1) excises 5-carboxylcytosine directly and stimulates TDG-mediated 5-formyl and 5-carboxylcytosine excision”

Target: NEIL1 P2T (human, UniProt Q96FI4 1-390, P2T)
Experiment: EMSA; EMSA: 25 mM Tris-HCl pH 7.5, 100 mM NaCl, 1 mM DTT, 10 nM DNA, 1-200 nM NEIL1 P2T, on ice 30 min; 6% native PAGE, 0.5x TBE, 4 C
Settings: protein: recombinant; tags: C-terminal His6; label: 5'-32P top strand; blunt

Chain of NEIL1 P2T (Q96FI4 whole entry P2T): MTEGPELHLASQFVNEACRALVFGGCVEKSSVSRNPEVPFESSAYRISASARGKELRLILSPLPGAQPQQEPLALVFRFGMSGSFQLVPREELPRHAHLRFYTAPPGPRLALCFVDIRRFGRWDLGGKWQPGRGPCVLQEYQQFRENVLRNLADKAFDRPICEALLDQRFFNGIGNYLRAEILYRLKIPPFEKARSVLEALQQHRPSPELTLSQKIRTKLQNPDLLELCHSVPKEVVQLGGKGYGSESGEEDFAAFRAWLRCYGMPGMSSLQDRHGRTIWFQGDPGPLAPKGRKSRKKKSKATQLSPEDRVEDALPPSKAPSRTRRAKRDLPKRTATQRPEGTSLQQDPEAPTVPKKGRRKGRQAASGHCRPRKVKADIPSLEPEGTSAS

B1: 41-mer 5caC:G (dsDNA)
DNA 1: GCTACCTACCTAGCAGGGGCCAGCTGTCCCACTGCTCGGAA
DNA 2: TTCCGAGCAGTGGGACAGCTGGCCCCTGCTAGGTAGGTAGC
modifications: 5-carboxylcytosine at position 20 of top strand
binding result: binds

B2: 41-mer 5OHC:G (dsDNA)
DNA 1: B1 DNA 1
DNA 2: B1 DNA 2
modifications: 5-hydroxycytosine at position 20 of top strand
binding result: binds
